From the DeepSol protein solubility set

Assay: soluble on expression in E. coli; label from the status in PepcDB or PDB records

Sequence | soluble on expression in E. coli
MQVMASPPCTTEELSPPPGGSLVEYSGGSLRVPDNPVVAFIRGDGVGPEVVESALKVVDAAVKKVYGGSRRIVWWELLAGHLAREKCGELLPKATLEGIRLARVALKGPLETPVGTGYRSLNVAIRQALDLYANIRPVRYYGQPAPHKYADRVDMVIFRENTEDVYAGIEWPHDSPEAARIRRFLAEEFGISIREDAGIGVKPISRFATRRLMERALEWALRNGNTVVTIMHKGNIMKYTEGAFMRWAYEVALEKFREHVVTEQEVQEKYGGVRPEGKILVNDRIADNMLQQIITRPWDYQVIVAPNLNGDYISDAASALVGGIGMAAGMNMGDGIAVAEPVHGTAPKYAGKDLINPSAEILSASLLIGEFMGWREVKSIVEYAIRKAVQSKKVTQDLARHMPGVQPLRTSEYTETLIAYIDEADLNEVLAGKRG | soluble
MGSDKIHHHHHHMLNETKELLKDYYGIDDDTFKLSQEIMEEIKDKFEEIKEIREYNQYKVLKAMQESKLSDMHFNWTTGYGYNDIGREKIEEIYSKVFNTEDALVRPIIVNGTHALTLCIQGIVRPGDEILSVTGRPYDTLEGVIGIREEKGSLKEYGVTYDDVDFLEDGNLDLEGIKSKINDRTKLVMIQRSKGYSWRKSLSISDIKEAIEVIKSVKPEAIVMVDNCYGEFLDTKEPTDVGADVMAGSLIKNPGGGLALTGGYIAGRKDLIELISYRMTSPGIGKECGLTFGTTRNVLQGFFLAPYIVSQAVMGAIFCSRAFEKLGYDVLPKYDDLRSDIIQCIRLNNADEVISFCEGIQEAAPVDSYVKPVPWDMPGYESEVIMAAGAFIQGSSIELSADAPIRPPYNVYFQGGLTFDHSKMGTLKAIEFIKKLKK | not soluble
MAHHHHHHMHVSSAAYTRAYEWQRALNSCTGDFSSSLARCLPLRALCRRPNNVPRTLTHTSKHPHPLLLSHPRLPLSHAARTRAPPPSRCSRSTLMSVPYEEKAFPPL | not soluble
MDNFSLLTTPWLPVRFKDGSTGKLAPVDLADENVVDIAATRADLQGAAWQFLLGLLQCSIAPKRYKNWEDIWFDGLHADVLHKALAPLEHAFQFGAETPSFMQDFEPLSGEKVSIASLLPEIPGAQTTKFNKDHFVKRGVTERFCPHCAALALFSLQLNAPAGGKGYRTGLRGGGPLTTLVELQEYQGERQTPLWRKLWLNVMPQDTADLPLPDQCDATVFPWLAATRTSEQANAVTTPEQVNKLQAYWGMPRRIRLDFATLQSGCCDICGAESDELLGFMTVKNYGVNYDGWRHPLTPYRAPVKDQNAFFSVKPQPGGLIWRDWLGLSQNNQTEANYESPAQVVKVFNARSLTDVKAGIWGFGADFDNMKIRCWYEHHFPLLMTEGLIPDLRKAVQTAARLLSLLRSALKEAWFADAKGARGDFSFIDIDFWNLTQGRFLNLIHDLENGHKPDERLNKWQRELWLFTRHYFDDHVFTNPYESSDLERIMTARKKYFTTSAEKQSAKAAKAKKQEAAE | not soluble
MASETSQFGIETDSITLQRYVLQEQRKHADASGELTALLTNMLVAIKAIASATQKAGLAKLYGIAGATNVQGEEVKKLDVLSNELMINMLKSSYTTCLLVSEENDELIEVEEQRRGKYIVTFDPLDGSSNIDCLVSIGTIFGIYKKRGDGPATVDDVLKPGKEMVAAGYALYGSATMVVLSTGDGVNGFTLDPSIGEFILTHPNMKCKEKGSIYSLNEGYAQTWSKGFAEYIRTRKYPEAGKKAMGQRYVGSMVADVHRTILNGGIFLYPPTVSAPNGKLRLLYECNPMAYIIEQAGGLATTGKERILDIQPTQIHQRAPIILGSKLDVEEALEYLAKYDN | not soluble
MAQKKGRESDSVAEGLRPAEEGDVLELDECWTYVRERANKRWLWVALCRRTRQVVAFVIGDRSARTCARLWSRIPEEYRQGRSFSDFWKSYRPVFAGDPSHRQVGKSSGEMAHVERFFGRLRQKLARYVRRTRAASESERMLHLTTKLFVEWYNEAIT | not soluble
MKVWIKASALLTLAGLTACSASPTGRNQILMFSDQEMSSLGAKSFDQMKKDIPISKDKKTNAYVQCVAKQITNAIPPQAGFKDWEVVVFDSDQVNAFALPGGKIGVYTGLLKVAKNQDQLATVIGHEVAHVLAEHSNERLSQSQLANAGLSLANVAIGASEYKQYQQLTMAALGVGVQYGVILPYGRTQESEADIVGLEYMAKAGFNPNQSVDLWKNMSAASGGAQPPEFFSTHPSHSTRIKDLQATINKLPKYNVKAPKCGLEHHHHHH | not soluble
MAHHHHHHMLFVDLLNGVNVNYKRKVPICKRPTRSAEYLSNQPLHANRNVEQTSSKNGEASITNHEDEKDENILQQYIYTLSHLTIFDVDRDKSTPLNIALLLKACLASHNYIKNVEIFTSNVKNKEICSFIYERRNDFDAFFKLHVMKYIDFFGNPQIVETLKSSVDNKEMYQRELEIFNQIDGETKLRKDLLEDILFECTRLNKIIQYSLAVNNFNLFSPTVLLKLFTYFKHYGVYYSIFLNNIKKVKYYYQTKDIREEDKRKIEKIVDHYLLTLDRFNHMYEAGHVTL | not soluble
MSRTIMLIPISAGVGLTSVSMGLLRAMERKGVSVSFYKPIAQPRTGDDQPDLTSTVMSRNSDIKIGQPMSMSAAETLIGSEKMDVLLETVVERYNQINKDAEVTLIEGLVPTRKHPFANQVNAEIANTLGAEIVFVATPGTDNPTQLKERIEVACSNFGGTKNKSISGVIINKLNAPVDEAGRTRPDLSEIFDDADHAKQANLEVMQIFNTSPIRVLGCVPWSIDLIATRAIDMAKHLKAE | not soluble
MSLGLTPHAPSPLADRLRPQSLDEVVGQQHLLGPEGPIGRMAAARRLASMILWGPPGTGKTTIARLLAKAGGYEFMQISAVFSGVADLKKAFEQARARRMAGQSTLLFVDEIHRFNRAQQDGFLPFVEEGIVTLVGATTENPSFELNGALLSRCQVFVLKRLTEESLELLLQRAEAAENRPLPIDAEARSALVAMADGDGRYLLTLAETLFSIGTDTPLNPTQLGQFLQKRRPAYDKDREEHYNLISALHKSVRGSDPDAALYWLARMLEGGEDPLFIARRLVRMASEDIGAADPLSLLLTTAAKDAYDFLGSPEGELALAQAVVHMASAPKSNAVYTAYKAARRAAKETGSLMPPSHILNAPTKLMKSLGYGDGYAYDHDVEGGVSGQNYFPDGMERRRFYEPKPVGAEAKVRERLEAWGKVRKDGKEGHHHHHH | soluble
MGSDKIHHHHHHMKQIAVVSGKGGTGKTTFTASLGVLLENSLLADCDVDASNLYILFPGDPVEEHEYYRGKKAVIDQEKCDRCGICERVCRFDAIIPGEKYGVDQYACEGCNACVVSCPRNAITLVQSLAGRYFFAWSGGKPIVYARLSPGEENSGGLVAEVRKLALEKAKELKRDYVIIDGAPGIGCSATSSIVGVNYVVVVTEPTMSGLHDLKRIVETLKCLKREFGIVINKYDINSVVSREIEDYCLSEGLDLLGKIPFDETVVRASVECKPVVTYENSPAAESIKKIVEKIIEKIS | not soluble
NFMLTQPHSVSESPGKTVTISCTRSSGSIASYYVQWYQQRPGSSPTTVIYEDSQRPSGVPDRFSGSIDSSSNSASLTISGLKTEDEADYYCQSYDSSNVVFGGGTKLTVLGQPKAAPSVTLFPPSSEELQANKATLVCLISDFYPGAVTVAWKADSSPVKAGVETTTPSKQSNNKYAASSYLSLTPEQWKSHRSYSCQVTHEGSTVEKTVAPTECS | soluble
GPGSMRRANEVAREMWAPSTWERRMSLAGQFTTFCCTHERPIKEESCAAFLMAIEVAPSTRPQYARMLRSMLEMDRTPLDMMIVGLQKKIAARSETKQARLLTKEEMNQLIRSRTDWKERVVLRLAWITASCWSEIEALIPNNFTLERDGALILDWSLAPKTARADPHRASRFVRIRGLDAFDTIKLCRTLQHSEKLTNITNAQVERALVPWNATAHSIKRGALRRAAQIVEAYNFNPHVISQLAMHVDPFDLPQNTVRYLGKHTTLLTQVSSLVAFL | not soluble
QAMTKTLRTPEHVYLCQRLRQARLDAGLTQADLAERLDKPQSFVAKVETRERRLDVIEFAKWMAACEGLDVVSEIVATIAEGRAQA | soluble
ERVPKTVDVETIRSRIAQIDGVGGVHDVHVWSIDGQQDIATVHVVVDENVNVKDCTTLDRIQKVFHDAGIDHVTVQLEHDTHMSHELPCQH | soluble
MNPITNIKNQNRMNERELSLGYAGDLKKSWHQTYKDSAWIYIGGLSYALSEGDVIAVFSQYGEVMNINLIRDKDTGKSKGFAFLCYKDQRSTILAVDNFNGISLHKRMIRVDHVEEYKVPKYKEDADDETKRLWEEGCAPKPVMREAAPMEVQEQRIKKAKEVLLDIGDVDEELLKKIKKDKKKAKKEKKREKKRAKKIRKLEKKAARDPDGDWNNKAKLIDKVVAEDDLYGENKHFDFGKKKEVEEVKHNPRPDFEKADWRDIEIWKVIREREKAEKAARGETSEAWGPEDHYVSKRYQGR | not soluble
MYYYVNEHEKALADFDKVIELNPKEDKTYYWKGLVYEYLKQYESSLVYLNKAIQLNDKNYKYYELRSLVYKQLREYDKAYSDVNVAIKLNQNNGILYSLRGLLNKYLNKYNDAIIDYNKSIELMPEFIAPYKSLLSIYLQTQNYEAGLEVANKAINIEQSWILYSTRGYLFLMLQSYNEAISDSNRAIKLNSGFADSYLTRGKAYLALKEYKKAIEDFDRAIELDSDNIDKVKQEAYEALAEMGEK | not soluble
MAEHVEIVEMAARDGLQNEKRFVPTADKIALINRLSDCGYARIEATSFVSPKWVPQLADSREVMAGIRRADGVRYSVLVPNMKGYEAAAAAHADEIAVFISASEGFSKANINCTIAESIERLSPVIGAAINDGLAIRGYVSCVVECPYDGPVTPQAVASVTEQLFSLGCHEVSLGDTIGRGTPDTVAAMLDAVLAIAPAHSLAGHYHDTGGRALDNIRVSLEKGLRVFDASVGGLGGSPFAPGAKGNVDTVAVVEMLHEMGFETGLDLDRLRSAGLFTQALRQDKAALEHHHHHH | soluble
GCGVEEKTEVQLLKEMPKPKAMTIDPSLSQKEATEMVHAAQRFYAFWDTGKEELIPQTVTENFFDHTLPKGRPQGTEGLKFAAQNFRKIVPNIHCEIEDLLVVGDKVTARLSFTGTHNDKKIDFFAIDILHVKDGKITEDWHLEDNLTLKQQLGLIAEE | soluble
MAIEHFSTLKQHLSSQIIGQEALVENLLIALLANGHLIVEGPPGLAKTRAVNALAQGLEADFHRIQFTPDLLPADLTGTDIYRPEDGTFVFQPGPLFQNLVLADEINRAPAKVQSALLEAMAEGQITVGRKTYDLPELFLVMATQNPIEQEGTYPLPEAQLDRFLMHIEIGYPDAESELAILKLNRGEALRSNANHGNDSSEKETSTKENSLRTLSQSEIFSAREQVLNIHMAPSLENYIVDLIIATRQPEKYDDKLSTWLAFGASPRATIALDRCARARAWLHNRDFVSPEDIQAVFHNALRHRILLSYQAEAEGITANQVLDYILTQVAVALEHHHHHH | soluble
MNAEERFDRITRLTRRIFALPICVVTLVDASRQWFKSCQGLEVTETSRDISFCGHAINHDGIFIVNDAQMDPRFHDNPLVTQSPHIRFYAGYPLTIRGEYRVGTLCLIGNEPREFSADDIETLTDLGQMVEAELLSISLNTLDPLEHHHHHH | not soluble
FNQTYQFTGLLNPDGTVIEANDAALDFGGLDRDEIVGKHFADIPWWSHSDTERDNVRDALERAASGEFVRYETEVRGVDGLGTIDFSVKPVTDQDENVTLLVVEGRDIT | not soluble
